Assay: soluble on expression in E. coli; label from the status in PepcDB or PDB records

Sequence	soluble on expression in E. coli
MALRFITAEEAAEFVHHNDNVGFSGFTPAGNPKVVPAAIAKRAIAAHEKGNPFKIGMFTGASTGARLDGVLAQADAVKFRTPYQSNKDLRNLINNGSTSYFDLHLSTLAQDLRYGFYGKVDVAIIEVADVTEDGKILPTTGVGILPTICRLADRIIVELNDKHPKEIMGMHDLCEPLDPPARRELPVYTPSDRIGKPYVQVDPAKIVGVVRTSEPNDESDFAPLDPVTQAIGDNVAAFLVSEMKAGRIPKDFLPLQSGVGNVANAVLGALGDNPDIPAFNMYTEVIQDAVIALMKKGRIKFASGCSLSVSRSVIQDIYANLDFFKDKILLRPQEYSNNPEIVRRLGVITINTALEADIFGNINSTHVSGTRMMNGIGGSGDFTRNSYVSIFTTPSVMKDGKISSFVPMVAHHDHSEHSVKVIISEWGVADLRGKNPRERAHEIIDKCVHPDYRPLLRQYLELGVKGQTPQNLDCCFAFHQELAKSGDMRNVRWEDYMK	not soluble
MAHHHHHHMAYGDDSKIVEGIVGERNIYKRREESTETNPFQSKHKKRLLFVLDVSASMYRFEGMDHRLSKLLESTVMVMEAFAGFEEKIDYAMVGHNGDSACIELVSFGHSPANQKARMEVCQRMVAHAQYCWSGDNTVEAMRQSIDLVTAEKGDAYLVFVISDANLPRYGIQPSELSAIMRSHKEVQMFCIFIATLGEQASNLQAEMPPGHGFECLDTQALPHILKQIFFSVNLL	not soluble
MVLFDVKKYETPDAKDVDMEQTKHNVSVFLSAYLAARCRVGQPREPKVTASFSLVPPSTAKNTFEAEQMLIQKEEAQEEFDYLHKLFVRGYSAIQHPHKPDVTERRKRIFYDRYINGNPIYLAAQRNCISEESVKQESNMIIVQFASALELVAFK	not soluble
MRVNDVNLMRYIQQLSLERKAPTPGSFLFNTVSELAVQQKLRGQIEGYKTTLSQIYNGIGLLNTANAGLESISTALQRARELAVQASNATLTDVERSMIQKEYEEIMRGVKRIIQQTTYNEQRVLAGDVRNLVIQTGPNEGQNVTVNIPNLEETLSELFEVDLSTFEGAQRSLETIDQALENISQIRGNVGSWMNRLESSARSVMNSYTELFKTESLFEPSVAELLLESTKEDILRQTALTGILFRMENAGNVLKLLM	not soluble
MSLVTSMTFYETRFPEDISYGSTGGPEFTTSIIETNNGYEYRKINISYPRNKYNIMYSVKSEEELLKLINFFYIHKGKAIGFRFKDWADYKAIQQKIGIGDNHQTTFQLVKTYKVDQFSYIRTITKPVINTVKIYYNDSIKNNGFSVNLSNGQIKFDIAPKDGIEIFADYEFDVPVRFDSDYLPYSIDNYKQYNCNNITLIEVKTEGHHHHHH	not soluble
DRTIPDYTSFNTVDEWLDAIKMSQYKESFASAGFTTFDIVSQMTVEDILRVGVTLAGHQKKILNSIQVMRAQMNQ	soluble
MGSDKIHHHHHHMLYAYGARVWALPIFTHQVYLDKPTKPGDKTLSLATTGFDFYVGGRAVLMNGNKREMVDITGIEPDKLEIKRSLLNRFDTSTVVYPLRSAVLTDMPQLTRLSDEVATAQIRLQIHEHNGYAADIRHLPTYRGHPVLEPTSEWSEDITAQYLRLIKQLDNGTALPHYLDTAKNAFQLTNHRFLLDSIEAQHKLRQLFYYLRGRQKAIWVASSTSDLTLANDIVGKNLDIELVYYTTCLLKQAGRQDIRIECTDGSVHYRRILAATVSNNQTERLALDGEALNLKREQVAKISFLTLSRLESDTIDWVHHTDTVASVTVSFRGLRDELEV	not soluble
MASSVVFAATGSLSVPPLKSRRFYVNSSLDSDVSDMSVNAPKGLFPPEPVPYKGPKLKVAIIGAGLAGMSTAVELLDQGHEVDIYDSRTFIGGKVGSFVDRRGNHIEMGLHVFFGCYNNLFRLMKKVGAEKNLLVKDHTHTFINKDGTIGELDFRFPVGAPIHGIRAFLVTNQLKPYDKLRNSLALALSPVVKALVDPDGAMRDIRNLDSISFSDWFLSKGGTRASIQRMWDPVAYALGFIDCDNMSARCMLTIFSLFATKTEASLLRMLKGSPDVYLSGPIKQYITDRGGRIHLRWGCREILYDKSADGETYVTGLAISKATNKKIVKADVYVAACDVPGIKRLLPKEWRESRFFNDIYELEGVPVVTVQLRYNGWVTELQDIELARQLKRAVGLDNLLYTPDADFSCFADLALASPADYYIEGQGTLLQCVLTPGDPYMRMPNDKIIEKVAMQVTELFPSSRGLEVTWSSVVKIAQSLYREAPGKDPFRPDQKTPIKNFFLAGSYTKQDYIDSMEGATLSGRQASSYICDAGEELAELNKKLSSSATAVPDELSLV	not soluble
MLSCVIPAHDEAALIGQTLQCLHACAQAMQLDYEAIVVADACSDDTAAIARANGASVIEVELRHIAATRNAGAQAAQGDRLLFLDADTQVNPQVMAAALAALDAGAVGGGARVHLHGKRVWVERMAQAVFGWIFRLSGIAPGCFLFCTRAAFASAGGFDTRYYAGEDVALSRSLARCGRFVILRQTVHTSDRKLRSFSKREHVGLLLRFLWRGRRMLQTRDALGFWYQRRRLEHHHHHH	not soluble
MATAFTHSGKFHADDVFSAALLLYLNPEITITRGNRVPEDFDGIVFDIGRGRYDHHQKDSRVRENGIAYAAFGLLWEELGSEILGEELAQKFDEAFVQPLDNNDNTGEKNELASLIGNFNPTWDAEGSNDEAFFQAVSVAGMILENKFDRYRGNERADKRVEEIYERHMQAFHDREKHSEDAKILILPEFVPCQKFLSETPVAFVIFPSNRGGYCIQPQKKEYSMNYKCSFPSEWLGLENEELQEVTGLKTAGFCHKGGFLMTTGELADAVQACKISMEQFREKPVIVSFGGDTEYDELLHQIPKLQAAEIIHIDIQPLPEVEIQGIYAEVSMEKQEWKARIKEQVKQILKYKPEAVFVGENLFVAYPIVHALRKKHIPVLVPAEKDGQKLLIRIPSGSLEHHHHHH	soluble
MPEMADVMQTQAGDAGAFRHFDLSRVPTPCFVVDEVAIERNLKILRDISDRSGAHVLSALKAFSMFTLAPLVRQYLGGTCASGIYEARLGREEYGGEVATFCAGYKEQDIDEILSLSNHIIFNSPAQKDRFLSRAQAAGVQVGLRINPEHSEGEIAKYDPCAPCSRLGTPVSLLTPETLKGVDGLHMHTLCEQGFEPLLRTWAAVEPKLAPYLPGLKWLNFGGGHHITRADYDRDALIDFLKSLRARHGLDVYLEPGEAVALDAGILVGEILDLPSNGMDLAITDISATCHMPDVIEAPYRPALMDEADSGHTYRLGGPSCLAGDVIGDYTWDQPLTIGQRFAFLDQAHYSMVKTNTFNGVPLPTIALWNSKTDALRIVRQFDYSDFKDRLS	not soluble
MSESFAQLFEESLKVLETRQGSIVSGTVVAIQKGFVLVDAGLKSESAIPVAEFLNAQGELEIQVGDTVNVALDAVEDGFGETKLSREKAVRHESWIELEKAYEEKATVIGLIGKVKGGFTVELNGVRAFLPGSLVDTRPAREADHLLGKELEFKVIKLDQKRNNVVVSRRAVIESENSQEREQVLENLVEGSEVKGVVKNLTEYGAFVDLGGVDGLLHITDMAWKRVKHPSEIVNVGDEVTVKVLKFDKDRTRVSLGLKQLGQDPWAAIAENHPVNSKLTGKVTNLTDYGCFVEILDGVEGLVHVSEMDWTNKNIHPSKVVSLGDTVEVMVLEIDEERRRISLGLKQCKANPWTQFADTHNKGDKVTGKIKSITDFGIFIGLEGGIDGLVHLSDISWSISGEEAVRQYKKGDEVSAVVLAVDAVKERISLGIKQLEEDPFNNFVAINKKGAVVSATVVEADAKGAKVELAGGVEGYIRSADLTSEVAVGDVVEAKYTGVDRKSRIVHLSVKAKDQAEEAAAVASVNNKQEDIVIPNAMAEAFKAAKGELEHHHHHH	not soluble
SKVTSLTACLVDQSLRLDCRHENTSSSPIQYEFSLTRETKKHVLFGTVGVPEHTYRSRTNFTSKYNMKVLYLSAFTSKDEGTYTCALHHSGHSPPISSQNVTVLRDKLVKC	soluble
MAHHHHHHMKDYNVTMEVFVQEPDDYVQDQRLLEEILNLTAHQALEAINKPLHEGVLSLSGNVGTMKEKDTITPLARGKPNGVLTQVPTEARREAEERLRREEEERLGGTQEMKFTFSGTIEDVLFRGEFRYKEMKLNDFLLLRFGGRGVVATNRSVLLEEFFKEPARYVPGARVLNEIKITVRYLRIEGTVREEMDLEEVVRMLHHESVFPLSNGRNMKEMTQPLPLQGEN	not soluble
SASRGKTETSKLKQNLEEQLDRLMQQLQDLEECREELDTDEYEETKKETLEQLSEFNDSLKKIMSGNMTLVDELSGMQLAIQAAISQAFKTPEVIRLFAKKQPGQLRTRLAEMDRDLMVGKLERDLYTQQKVEILTALRKLGEKLTADDEAFLSANAGAILSQFEKVSTDLGSGDKILALASFEVEKTKK	soluble
MAVTDLSLTNSSLMPTLNPMIQQLALAIAASWQSLPLKPYQLPEDLGYVEGRLEGEKLVIENRCYQTPQFRKMHLELAKVGKGLDILHCVMFPEPLYGLPLFGCNIVAGPGGVSAAIADLSPTQSDRQLPAAYQKSLAELGQPEFEQQRELPPWGEIFSEYCLFIRPSNVTEEERFVQRVVDFLQIHCHQSIVAEPLSEAQTLEHRQGQIHYCQQQQKNDKTRRVLEKAFGEAWAERYMSQVLFDVIQ	soluble
MGSDKIHHHHHHMTLEQLLMFNTVALAGSLKAASDKLHKTQPAISQSIKQLESQLDVVLFDRQGYRLALTQEGRKLLQYAQRVLNEAQEMRQVAKHLAIGNEASITLAFEASFNLARILPMLERTQLEFPHTQIILKQEYLTGALEALNQGKADIAISAGGIESMRSNHFELGFLFSGSLLDVASPRLLSRYPSLSHVKELVNEYQIVIQDTGTGTANIEFGVQAGQRRWYVNDFYTKKMLIQSGMGWGKLPYYMVEEALANGSLHPLELKERQNLIQLDYYVMRRPQSPLGPVAQALWENLVQLATKQS	not soluble
MPLKAYRPPEDPGLWDTYLEWLERALKVAEAHPTTLEYLAHPKRLVTLSLPVVMDDGKVRIFQGYRVVHDIARGPAKGGVRLDPGVTLGQTAGLAAWMTLKAAVYDLPFGGAAGGIAVDPKGLSPQELERLVRRYTAELVGLIGPDSDILGPDLGADQQVMAWIMDTYSMTVGSTVPGVVTGKPHALGGSEGRDDAAGLGALLVLEALAKRRGLDLRGARVVVQGLGQVGAAVALHAERLGMRVVAVATSMGGMYAPEGLDVAEVLSTYEATGFLPRLDLAPEEVFGLEAEVLVLAAREGALDGDRARQVQAQAVVKVANFGLTPEAEAYLLGKGALVVPDLLSGGGGLLASYLEWVQDLNMFFWSPEEVRERFETRVARVVDAVCRRAERGGLDLRMGALALALERLDEATRLRGVYP	soluble
MSLRPARKTVGVALSGGGANGIAQIGVLKALDEERIPVDYIAGTSMGAIIGGLYSCGYSPADLEKIAETLPWQSVLSIREENPRARIFLEQQRIRDRSTIAIRFDKLKLMIPKSLSSAQALTGTLDLLILNGVYHSWQDFNSLPVQFRAVSTDLISGKRITLTSGSLSEAMRASSTIPVLFEPIERDGYRLVDGGLVANLPVDELDVVNASYKIAVDTHGSMYSKSGDLDLPWKAADQAITILTGLQYPAQLEKADEGHHHHHH	soluble
MGHHHHHHSHGGCRELRSTKYISDGQCTSISPLKELVCAGECLLLPVLPNWIGGGYGTKYWSRRSSQEWRCVNDKTRTQRIQLQCQDGSTRTYKITVVTACKCKRYTRQHNESSHNFESMSPAKPVQHHRERKRASKSSKHSMS	not soluble
MTIRLNDLGQVYLVCGKTDMRQGIDSLAYLVKSQHELDLFSGAVYLFCGGRRDRFKALYWDGQGFWLLYKRFENGKLAWPRNRDEVKCLTAVQVDWLMKGFFISPNIKISKSHDFY	not soluble

— the DeepSol protein solubility set
